Measured values taken from patent CN108840930A (SHENGYAN MEDICINE TECH WUHAN CO LTD, dated 2018).

Molecular target: 抗体-Fc融合蛋白scFv-3B5-Fc (anti-human CD19 scFv 3B5 fused to human IgG1 Fc) (human, UniProt P01857 99-330 = IgG part)
Assay: concentration-gradient ELISA, Fc-CD19 coated at 100 ng/well, goat anti-human-HRP detection, nonlinear fit (b = KD)

B1: 人Fc-CD19重组蛋白 (recombinant human Fc-CD19, bought from Acrobiosystems) (Fc fusion, UniProt P15391 20-291, looked up)
chain: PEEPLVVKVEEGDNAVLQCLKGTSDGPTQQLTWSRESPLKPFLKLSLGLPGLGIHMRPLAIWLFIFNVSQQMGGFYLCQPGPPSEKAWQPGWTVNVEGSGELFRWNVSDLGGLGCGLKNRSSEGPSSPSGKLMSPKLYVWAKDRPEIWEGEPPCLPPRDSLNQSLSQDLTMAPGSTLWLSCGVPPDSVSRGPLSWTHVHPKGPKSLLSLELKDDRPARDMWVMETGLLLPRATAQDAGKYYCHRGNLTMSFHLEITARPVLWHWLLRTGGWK
notes: Bought reagent; the order here follows the printed name Fc-CD19; also called Fc-CD19重组抗原; 重组人CD19抗原; not shown: Fc part of the bought Fc-CD19 fusion
Kd: 0.475 nM
